Measured values taken from patent US20170101466A1 (published 2017).

T1: human APRIL (human, UniProt O75888 105-250, limits assumed)
T1 construct: Bought recombinant protein; also called hAPRIL
T1 sequence (looked up): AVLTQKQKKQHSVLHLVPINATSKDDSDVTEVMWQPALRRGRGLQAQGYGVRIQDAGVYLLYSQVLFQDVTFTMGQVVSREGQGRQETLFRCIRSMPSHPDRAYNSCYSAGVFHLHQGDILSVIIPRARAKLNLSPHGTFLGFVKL

T2: mouse APRIL (mouse, UniProt Q9D777 96-241, limits assumed)
T2 construct: Bought recombinant protein; also called mAPRIL
T2 sequence (looked up): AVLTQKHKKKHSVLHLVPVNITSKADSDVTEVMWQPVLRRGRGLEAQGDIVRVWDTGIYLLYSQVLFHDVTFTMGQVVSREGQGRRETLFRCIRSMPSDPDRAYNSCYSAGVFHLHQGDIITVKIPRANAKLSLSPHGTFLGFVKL

B1: 8D12 IgG1 F243A/V264A double mutein expressed in Pichia pastoris (antibody, V domains shown)
VH: QVQLVQSGAEVKKPGASVKVSCKASGYTFTSYAMHWVRQAPGQRLEWMGWINAGNGNTKYSQKFQGRVTITRDTSASTAYMELSSLRSEDTAVYYCARAYYDILTGYSVYGMDVWGQGTTVTVSS
VL: EIVLTQSPATLSLSPGERATLSCRANESVGNYLAWYQQKPGQAPRLLIYGASRRATGIPDRFSGSGSGTDFTLTISRLEPEDFAVYYCQQYGSSLLTFGGGTKVEIKR
notes: IgG1 F243A/V264A (EU) double mutein, alpha-2,6-sialylated, from glycoengineered Pichia pastoris; also called 8D12-DM; 8D12-DM (Pichia)
B2: 8D12 IgG expressed in HEK293 cells (antibody, V domains shown)
VH: B1 VH
VL: B1 VL
notes: IgG from HEK293-FreeStyle cells; also called 8D12 (293)
B3: belimumab (antibody, V domains shown)
VH: QVQLQQSGAEVKKPGSSVRVSCKASGGTFNNNAINWVRQAPGQGLEWMGGIIPMFGTAKYSQNFQGRVAITADESTGTASMELSSLRSEDTAVYYCARSRDLLLFPHHALSPWGRGTMVTVSS
VL: SSELTQDPAVSVALGQTVRVTCQGDSLRSYYASWYQQKPGQAPVLVIYGKNNRPSGIPDRFSGSSSGNTASLTITGAQAEDEADYYCSSRDSSGNHWVFGGGTELTVLG
B4: 6C10 IgG expressed in HEK293 cells (antibody, V domains shown)
VH: EVQLVQSGAEVKKPGASVKVSCKASGYTFTSYGISWVRQAPGQGLEWMGWISAYNGNTNYAQKLQGRVTMTTDTSTSTAYMELRSLRSDDTAVYYCARTYYDILTGYYYYYGMDVWGQGTTVTVSS
VL: EIVLTQSPGTLSLSPGERAMLSCRASQSVGNYLAWYQQKPGQAPRLLIYDASNRATGIPARFSGSGSGTDFTLTINSLEPEDFAVYYCQQRSNWPLTFGGGTKVEIKR
notes: IgG from HEK293-FreeStyle cells; also called 6C10 (293)
B5: 8A12 IgG expressed in HEK293 cells (antibody, V domains shown)
VH: QVQLVQSGGGLVQPGGSLRLSCAASGFTFSSYAMSWVRQAPGKGLEWVSAISGSGGSTYYADSVKGRFTISRDNSKNTLYLQMNSLRAEDTAVYYCAREGQGYDILTGYYTRGYYFDYWGQGTLVTVSS
VL: QSALTQPASVSGSPGQSITISCTGTSSDVGGYNYVSWYQQLPGKAPKLMIYEVSKRPSGVPDRFSGSKSGNTASLTISGLQAEDEADYYCSSYAGSSSWVFGGGTKLTVLG
notes: IgG from HEK293-FreeStyle cells
B6: 9F8 IgG expressed in HEK293 cells (antibody, V domains shown)
VH: QVQLQQSGAEVKKPGASVKVSCKASGYTFTSYYMHWVRQAPGQGLEWMGWINAGNGNTKYSQKFQGRVTITRDTSASTAYMELSSLRSEDTAVYYCARDNLSYDILTGYSFGGWFDPWGQGTLVTVSS
VL: QSALTQPASVSGSPGQSITISCTGTSSDIGRYNYVSWYQQRPGRAPKVIIYDVSSRPSGVSKRFSASKSGNTASLTISGLQAEDEAVYYCSSYTRITTLYVFGPGTKVTVLG
notes: as for B5

Key:
human APRIL = target: T1, human APRIL; assay: Biacore, antibody captured, APRIL injected
Protocol: (§1) Recombinant protein NG (Thermo Scientific, Cat #21186) was diluted to 100 μg/ml in 10 mM Sodium Acetate pH 4.0 and then immobilized on the surface of a pre-activated Series S CM4 Biacore chip (GE, Cat #BR-1005-34) using amine coupling. […] Binding response was measured as the difference in total RU increase during 300 second APRIL injection of each individual flow cell and the reference flow cell (e.g., Flow cell 2-1).

mouse APRIL = target: T2, mouse APRIL; assay: Biacore, antibody captured, APRIL injected
Protocol: as §1

soluble human BLyS [1] = target: T3, soluble human BLyS (human, UniProt Q9Y275 134-285); assay: DELFIA competition, Eu-hBLyS binding to coated BR3
T3 construct: also called hBLyS; human BAFF (BLyS)
Protocol: (§2) After 5× washing with 200 ul/well of DELFIA 1× wash solution (PE, Cat #4010-0010), plates were blocked with 3% BSA purified from trace heavy metal amounts (PE, Cat #CR84-100) for 3 hours with shaking at room temperature. Plates were washed again five times at 200 μl/well with DELFIA wash solution.
(§3) The final 3 wells across the plate served as controls (2 wells contained 2,000 pM mAbs for negative and background controls while the third contained no mAbs for positive control). […] After 18-24 hrs at 4° C., plates were read on PE EnVision plate reader with laser excitation, LANCE/DELFIA top mirror, and emission filter Eu-615 with a delay of 400 μs. Data were fit to four parameter (variable slope) inhibition dose response curve using GraphPad PRISM 5.0 software.

soluble mouse BLyS [2] = target: T4, soluble mouse BLyS (mouse, UniProt Q9WU72 127-309); assay: DELFIA competition, Eu-mBLyS binding to coated BR3
T4 construct: europium-labelled in DELFIA; also called mBLyS; mouse BAFF (BLyS)
Protocol: as §2, §3

soluble human BLyS [3] = target: T3, soluble human BLyS; assay: DELFIA competition, Eu-hBLyS binding to coated BCMA
Protocol: as §2, §3

soluble human BLyS [4] = target: T3, soluble human BLyS; assay: DELFIA competition, Eu-hBLyS binding to coated TACI
Protocol: as §2, §3

soluble mouse BLyS [5] = target: T4, soluble mouse BLyS; assay: DELFIA competition, Eu-mBLyS binding to coated BCMA
Protocol: as §2, §3

soluble mouse BLyS [6] = target: T4, soluble mouse BLyS; assay: DELFIA competition, Eu-mBLyS binding to coated TACI
Protocol: as §2, §3

soluble human BLyS [7] = target: T3, soluble human BLyS; assay: Biacore, antibody captured on chip, BLyS injected, 1:1 model, 25 C
Protocol: (§4) Recombinant protein NG (Thermo Scientific, Cat #21186) was diluted to 100 μg/ml in 10 mM sodium acetate pH 4.0 and then immobilized on the surface of a pre-activated Series S CM5 Biacore chip (GE, Cat #BR-1005-34) using amine coupling. […] After the dissociation period, the chip was regenerated back to baseline by injecting 10 mM glycine pH 1.5 for 120 seconds over the four flow cells. […] The entire data set was fit to a 1:1 interaction model to give kₒₙ, koff, and Kd values. The assay was run at 25° C. in 1× biacore running buffer HBS-EP+ (GE, Cat #BR-1006-69).

soluble mouse BLyS [8] = target: T4, soluble mouse BLyS; assay: as above
Protocol: as §4

soluble human BLyS [9] = target: T3, soluble human BLyS; assay: Biacore T100, binder captured by anti-human Fc, BLyS injected, 1:1 model
Protocol: (§5) A Series S CM5 Chip (GE Healthcare) was amine coupled with an anti-human Fc capturing antibody (GE Healthcare Human Fc Kit) to >10,000 RUs. Sample antibodies were diluted in 1×HBS-EP+ running buffer to 0.15 ug/mL and injected for 45 seconds at 10 uL/min. […] Biacore Evaluation software was used to fit the data to a 1:1 Binding Model.

soluble mouse BLyS [10] = target: T4, soluble mouse BLyS; assay: as above
Protocol: as §5

soluble human BLyS [11] = target: T3, soluble human BLyS; assay: Biacore
soluble mouse BLyS [12] = target: T4, soluble mouse BLyS; assay: Biacore
soluble human BLyS [13] = target: T3, soluble human BLyS; assay: ELISA, soluble hBLyS
soluble mouse BLyS [14] = target: T4, soluble mouse BLyS; assay: ELISA, soluble mBLyS
soluble cynomolgus BLyS = target: T5, soluble cynomolgus BLyS (cynomolgus, UniProt A0A2K5V2X4 134-285); assay: ELISA, soluble cyBLyS
T5 construct: Soluble form; also called cyBLyS; Soluble cyBLyS

soluble human BLyS [15] = target: T3, soluble human BLyS; assay: blocking of biotinylated soluble hBLyS binding to immobilized mBR3
soluble human BLyS [16] = target: T3, soluble human BLyS; assay: cell-based or functional assay

Binder	binding result (human APRIL)	binding result (mouse APRIL)	IC50 (soluble human BLyS [1]) [nM]	IC50 (soluble mouse BLyS [2]) [nM]	IC50 (soluble human BLyS [3]) [nM]	IC50 (soluble human BLyS [4]) [nM]	IC50 (soluble mouse BLyS [5]) [nM]	IC50 (soluble mouse BLyS [6]) [nM]	Kd (soluble human BLyS [7]) [nM]	koff (soluble human BLyS [7]) [s⁻¹]	kon (soluble human BLyS [7]) [M⁻¹ s⁻¹]	Kd (soluble mouse BLyS [8]) [nM]	koff (soluble mouse BLyS [8]) [s⁻¹]	kon (soluble mouse BLyS [8]) [M⁻¹ s⁻¹]	Kd (soluble human BLyS [11]) [nM]	Kd (soluble mouse BLyS [12]) [nM]	IC50 (soluble human BLyS [13]) [nM]	IC50 (soluble mouse BLyS [14]) [nM]	IC50 (soluble cynomolgus BLyS) [nM]	IC50 (soluble human BLyS [15]) [nM]	also measured
B1	no binding (tested: 50 nM)	no binding (tested: 50 nM)	0.101	> 2	1.28	< 0.0003	> 2	> 2	0.138	3.5e-05	260000	0.099	5.7e-05	580000	–	–	–	–	–	–	Kd (soluble human BLyS [9]): 0.049 nM; koff (soluble human BLyS [9]): 5.4e-05 s⁻¹; kon (soluble human BLyS [9]): 1.11e+06 M⁻¹ s⁻¹; Kd (soluble mouse BLyS [10]): 0.134 nM; koff (soluble mouse BLyS [10]): 0.000196 s⁻¹; kon (soluble mouse BLyS [10]): 1.46e+06 M⁻¹ s⁻¹
B2	no binding (tested: 50 nM)	no binding (tested: 50 nM)	0.0622	> 2	0.63	< 0.0003	> 2	> 2	–	–	–	–	–	–	0.66	0.028	0.13	0.16	0.08	10	–
B3	–	–	–	> 2	–	–	–	–	–	–	–	–	–	–	–	–	–	–	–	–	IC50 hBLyS stimulated, mouse splenic B-cell proliferation (soluble human BLyS [16]): 0.018 µg/mL; Kd (soluble human BLyS [9]): 0.167 nM; koff (soluble human BLyS [9]): 8.55e-05 s⁻¹; kon (soluble human BLyS [9]): 506000 M⁻¹ s⁻¹; Kd (soluble mouse BLyS [10]): 0.0635 nM; koff (soluble mouse BLyS [10]): 0.000125 s⁻¹; kon (soluble mouse BLyS [10]): 1.98e+06 M⁻¹ s⁻¹
B4	no binding (tested: 50 nM)	no binding (tested: 50 nM)	0.121	0.784	0.0106	0.00067	0.098	0.679	0.434	5e-05	120000	0.334	6.7e-05	200000	0.51	0.0216	0.12	0.05	0.1	0.33	–
B5	–	–	–	–	–	–	–	–	–	–	–	–	–	–	4.26	0.0224	16	0.05	0.32	2.97	–
B6	–	–	–	–	–	–	–	–	–	–	–	–	–	–	1.1	0.0456	0.15	0.07	0.07	5.31	–
